According to article PMC5050560:

Each binder was assayed against cdPadR1 (Clostridium difficile R20291, UniProt A0A9R0CDW8 1-109) (assay: EMSA; 20 mM Tris pH 8.0, 120 mM KCl, 10 mM MgCl2, 5 mM DTT, 12.5% glycerol, 125 ug/mL heparin, room temperature). Settings: protein: recombinant; tags: N-terminal Strep II; chain copies: 2.

Binder	binding result
Pr112 (dsDNA) DNA 1: ATATTTTAGTTATATTTTTGATAGAAAATATTTTATCGTGTATAATACTACTTATAAATAAGAATAAAAATAAAGAGCTTGTTTGGAGGAATTTTAATAA DNA 2: TTATTAAAATTCCTCCAAACAAGCTCTTTATTTTTATTCTTATTTATAAGTAGTATTATACACGATAAAATATTTTCTATCAAAAATATAACTAAAATAT	binds
Pr97 (dsDNA) DNA 1: TTACTTATATAATGATAAATTTTAGGAG DNA 2: CTCCTAAAATTTATCATTATATAAGTAA	no binding
Pr47 (dsDNA) DNA 1: TCTTGACCTCGATAAGTGTCGTAAGTCAAGGGTAATTTATATATCAGTGAAAAATAATTACATTTAATCTAATGTTTTTAGAGAGGAGGATGCTATGTTA DNA 2: TAACATAGCATCCTCCTCTCTAAAAACATTAGATTAAATGTAATTATTTTTCACTGATATATAAATTACCCTTGACTTACGACACTTATCGAGGTCAAGA	no binding
Pr114 (dsDNA) DNA 1: ATATTTTATAATTAATAATTGTAATGCCGCACAGTAAAGGTTTAAATCTTCAAATGAAGTACCTTGTACTGGCGAGTTTGAGGCCGAGGAGGTGTATTTA DNA 2: TAAATACACCTCCTCGGCCTCAAACTCGCCAGTACAAGGTACTTCATTTGAAGATTTAAACCTTTACTGTGCGGCATTACAATTATTAATTATAAAATAT	no binding
Pr103 (dsDNA) DNA 1: TATATAAGTAACATACCCAATTTTGAGGTGAATGAAACAAAAGATGTCAT DNA 2: ATGACATCTTTTGTTTCATTCACCTCAAAATTGGGTATGTTACTTATATA	no binding
Pr46 (dsDNA) DNA 1: TTTTTTTATTTATAAACATTATTAAAAAAATATAGATGTTTTGGTTATATTCCTTGTCCTTTATAAATAGAATTATATAAACAAAGGAGGAGGACAAGAG DNA 2: CTCTTGTCCTCCTCCTTTGTTTATATAATTCTATTTATAAAGGACAAGGAATATAACCAAAACATCTATATTTTTTTAATAATGTTTATAAATAAAAAAA	binds
Pr95 (dsDNA) DNA 1: TAAAATTTATCATTATATAAGTAA DNA 2: TTACTTATATAATGATAAATTTTA	no binding
Pr104 (dsDNA) DNA 1: AGGTGAATGAAACAAAAGATGTCATGATAAGTCATGTAAAACAATAGTTT DNA 2: AAACTATTGTTTTACATGACTTATCATGACATCTTTTGTTTCATTCACCT	binds
Pr96 (dsDNA) DNA 1: AAGTAACATACCCAATTTTGAGGT DNA 2: ACCTCAAAATTGGGTATGTTACTT	no binding
Pr27 (Pobg) (dsDNA) DNA 1: ATACATAAAAGGAGTGTTGAGGCACTCCTTTTTCTTATAATACTGATGAATTTATAATGGTATTTTTGGTAATGCTAATTAAAAGTTTTTAATTAAGTAG DNA 2: CTACTTAATTAAAAACTTTTAATTAGCATTACCAAAAATACCATTATAAATTCATCAGTATTATAAGAAAAAGGAGTGCCTCAACACTCCTTTTATGTAT	binds
Pr119 (dsDNA) DNA 1: TTTCAACCACTCCTCTTAGTTTGATTTGGTAAGTTTAGGTCGGTATTTATTATATAATATAAATGAAACATTATATAATGGAAAAATTTCCCAGTAAACT DNA 2: AGTTTACTGGGAAATTTTTCCATTATATAATGTTTCATTTATATTATATAATAAATACCGACCTAAACTTACCAAATCAAACTAAGAGGAGTGGTTGAAA	binds
Pr102 (dsDNA) DNA 1: TTTTAACCCTCCTAAAATTTATCATTATATAAGTAACATACCCAATTTTG DNA 2: CAAAATTGGGTATGTTACTTATATAATGATAAATTTTAGGAGGGTTAAAA	binds
Pr106 (dsDNA) DNA 1: AAAATTTATCATTATATAAGTAACATAC DNA 2: GTATGTTACTTATATAATGATAAATTTT	no binding
Pr105 (dsDNA) DNA 1: AAAAGATGTCATGATAAGTCATGTAA DNA 2: TTACATGACTTATCATGACATCTTTT	no binding
Pr118 (dsDNA) DNA 1: AACCCGTCATATGGCTTGAGTTTATACTCAAGCTTTTTTTATTGGTATATTTATATATATAAATAATTTAATATAATCAAAATGATGGGGGTATGTTACA DNA 2: TGTAACATACCCCCATCATTTTGATTATATTAAATTATTTATATATATAAATATACCAATAAAAAAAGCTTGAGTATAAACTCAAGCCATATGACGGGTT	binds
Pr94 (dsDNA) DNA 1: AATGAAACAAAAGATGTCATG DNA 2: CATGACATCTTTTGTTTCATT	no binding

Each binder was assayed against cdPadR1 (Clostridium difficile R20291, UniProt A0A9R0CDW8 1-109) (assay: EMSA; no significant binding; EMSA: 20 mM Tris pH 8.0, 120 mM KCl, 12.5% glycerol, 10 mM MgCl2, 5 mM DTT, 125 ug/mL heparin (400 ug/mL in competition), room temperature; 8% PAGE in TB). Settings: protein: recombinant; tags: N-terminal Strep II; chain copies: 2; blunt.

Binder	binding result
Pr101 (dsDNA) DNA 1: GTACTATACAGCCTGGAGTAG DNA 2: CTACTCCAGGCTGTATAGTAC	no binding
